The target in the experiment is T1, BTN2A1 B30.2 (Homo sapiens, UniProt Q7KYR7).
T1 chain: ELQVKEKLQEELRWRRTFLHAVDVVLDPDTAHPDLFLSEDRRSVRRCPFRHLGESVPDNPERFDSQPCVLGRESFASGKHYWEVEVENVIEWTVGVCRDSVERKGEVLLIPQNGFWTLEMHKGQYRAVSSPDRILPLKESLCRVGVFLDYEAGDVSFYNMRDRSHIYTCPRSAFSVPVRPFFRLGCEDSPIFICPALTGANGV
Description: ITC. (ITC needs no label: the signal is the heat of the interaction.)

“And” between values parts separate entries of the source, which are not always exact repeats. Equal values may be shown once.

As a reminder, the Kd is a measure of binding affinity in units of concentration. Read a high Kd as a looser complex.

B1: BTN3A1 B30.2 (protein)
chain: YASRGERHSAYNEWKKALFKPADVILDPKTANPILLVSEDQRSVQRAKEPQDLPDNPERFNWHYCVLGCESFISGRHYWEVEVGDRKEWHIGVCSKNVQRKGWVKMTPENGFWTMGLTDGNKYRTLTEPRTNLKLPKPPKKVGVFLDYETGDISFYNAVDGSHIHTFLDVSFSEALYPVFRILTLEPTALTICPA
modifications: DMASPP
On to B1, for which the Kd is 8.19 µM and 18.8 µM.

These data come from article PMC12152872 (2025).
